These are literature values, as cited in paper PMC3930637.

The data set addresses HIV-1 capsid (CA) CA (Human immunodeficiency virus 1) (UniProt O93182).

Sequence of HIV-1 capsid (CA) CA (Human immunodeficiency virus 1) (O93182 133-363): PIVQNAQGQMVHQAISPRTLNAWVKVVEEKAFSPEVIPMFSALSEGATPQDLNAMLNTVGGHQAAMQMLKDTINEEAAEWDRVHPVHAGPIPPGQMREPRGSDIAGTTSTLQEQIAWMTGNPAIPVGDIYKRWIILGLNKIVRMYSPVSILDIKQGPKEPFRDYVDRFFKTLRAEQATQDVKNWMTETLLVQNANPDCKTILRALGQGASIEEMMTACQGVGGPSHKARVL
Sequence of Nup358 cyclophilin homology domain (P49792 3067-3223): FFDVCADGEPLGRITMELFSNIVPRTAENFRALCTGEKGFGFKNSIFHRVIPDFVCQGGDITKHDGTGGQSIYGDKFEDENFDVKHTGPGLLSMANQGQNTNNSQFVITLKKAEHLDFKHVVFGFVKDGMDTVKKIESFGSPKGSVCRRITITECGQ

As for “Nup358 cyclophilin homology domain (from UniProt P49792)”, the Kd (commonly the concentration at which binding is half-saturated) was 94 µM.
